Measurements reported in article PMC10401710, “Cell Surface Labeling and Detection of Protein Tyrosine Kinase 7 via Covalent Aptamers”.

T1: PTK7-CFP (UniProt Q13308)
T1 sequence: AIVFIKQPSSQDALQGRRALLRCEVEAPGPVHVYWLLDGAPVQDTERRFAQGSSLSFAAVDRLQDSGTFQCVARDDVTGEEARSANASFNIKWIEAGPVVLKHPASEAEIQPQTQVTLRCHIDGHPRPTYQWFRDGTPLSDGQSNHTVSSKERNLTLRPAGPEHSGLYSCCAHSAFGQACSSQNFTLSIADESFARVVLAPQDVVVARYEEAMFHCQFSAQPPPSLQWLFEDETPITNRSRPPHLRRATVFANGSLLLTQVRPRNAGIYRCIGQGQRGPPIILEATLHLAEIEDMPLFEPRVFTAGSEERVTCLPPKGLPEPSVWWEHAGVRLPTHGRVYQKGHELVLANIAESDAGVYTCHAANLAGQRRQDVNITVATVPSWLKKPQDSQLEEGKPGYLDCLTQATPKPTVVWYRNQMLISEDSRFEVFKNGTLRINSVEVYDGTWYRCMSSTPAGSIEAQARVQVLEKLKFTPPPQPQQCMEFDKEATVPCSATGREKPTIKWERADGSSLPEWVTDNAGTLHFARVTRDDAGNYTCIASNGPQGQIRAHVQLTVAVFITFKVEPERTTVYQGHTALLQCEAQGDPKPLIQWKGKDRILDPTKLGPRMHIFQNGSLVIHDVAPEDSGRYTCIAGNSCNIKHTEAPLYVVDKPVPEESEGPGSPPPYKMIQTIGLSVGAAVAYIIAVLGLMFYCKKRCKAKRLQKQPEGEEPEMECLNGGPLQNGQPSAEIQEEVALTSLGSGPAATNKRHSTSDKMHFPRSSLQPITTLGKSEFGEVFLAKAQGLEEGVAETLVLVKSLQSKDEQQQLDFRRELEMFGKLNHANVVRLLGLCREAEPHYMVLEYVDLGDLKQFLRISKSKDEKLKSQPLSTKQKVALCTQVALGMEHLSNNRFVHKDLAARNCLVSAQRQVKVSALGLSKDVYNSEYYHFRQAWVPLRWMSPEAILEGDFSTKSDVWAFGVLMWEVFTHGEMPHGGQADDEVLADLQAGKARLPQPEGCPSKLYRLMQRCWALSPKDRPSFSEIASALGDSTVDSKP

T2: PTK7 (recombinant, R&D Biosystems NC2081082) (UniProt Q13308 31-703)
T2 sequence: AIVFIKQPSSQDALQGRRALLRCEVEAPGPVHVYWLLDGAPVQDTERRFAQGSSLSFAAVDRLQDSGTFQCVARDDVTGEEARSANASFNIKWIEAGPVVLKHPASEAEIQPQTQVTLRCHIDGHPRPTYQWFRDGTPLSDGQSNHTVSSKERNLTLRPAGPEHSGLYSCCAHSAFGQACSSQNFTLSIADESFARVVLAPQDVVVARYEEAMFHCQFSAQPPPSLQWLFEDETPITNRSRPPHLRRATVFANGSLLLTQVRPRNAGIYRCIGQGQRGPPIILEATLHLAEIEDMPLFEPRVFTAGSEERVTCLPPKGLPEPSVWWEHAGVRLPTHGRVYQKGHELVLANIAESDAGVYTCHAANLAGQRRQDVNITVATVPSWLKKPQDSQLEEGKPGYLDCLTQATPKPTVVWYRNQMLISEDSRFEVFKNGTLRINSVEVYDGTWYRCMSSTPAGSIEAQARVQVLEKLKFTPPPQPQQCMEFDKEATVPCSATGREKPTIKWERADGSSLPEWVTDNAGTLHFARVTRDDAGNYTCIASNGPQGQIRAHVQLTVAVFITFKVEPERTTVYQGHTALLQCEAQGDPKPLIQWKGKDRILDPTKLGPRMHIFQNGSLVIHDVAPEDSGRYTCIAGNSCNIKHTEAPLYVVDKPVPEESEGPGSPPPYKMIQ


Assays:
PTK7-CFP = target: T1, PTK7-CFP; assay: covalent biotin transfer on cells, SA-HRP blot; conditions: EC50 of label transfer, not equilibrium Kd; transfected HEK293T, 1 h, 5 mM MgCl2; T27 replaced by 5-octadiynyl-dU, clicked to azide-tethered N-acyl sulfonamide biotin electrophile 1; DPBS with 5 mM MgCl2, 4.5 g/L glucose, pH 7.4, 37 C, 1 h (cells: plus 0.1 mg/mL yeast tRNA); read-out is proximity-driven covalent labeling, no equilibrium Kd …
[1] = target: T2, PTK7 (recombinant, R&D Biosystems …); assay: covalent biotin transfer, SA-HRP blot; EC50 of label transfer, not equilibrium Kd; 100 nM PTK7, 1 h, 37 C, 5 mM MgCl2; DPBS with 5 mM MgCl2, 4.5 g/L glucose, pH 7.4, 37 C, 1 h (cells: plus 0.1 mg/mL yeast tRNA); read-out is proximity-driven covalent labeling, no equilibrium Kd measured; conditions: protein: commercial; label: transferable biotin; stem-loop (UNIFold prediction)

Molecule	K half (PTK7-CFP) [nM]	apparent K (half saturation) [1] [nM]
ATCTAACTGCTGCGCCGCCGGGAAAATACTGTACGGTTAGA [sgc8c(27)-1]	251	–
ATCTAACTGCTGCGCCGCCGGGAAAATACTGTACGGTTAGA (structured_DNA, T27 replaced by 5-octadiynyl-dU, clicked to azide-tethered N-acyl sulfonamide biotin electrophile 1) [sgc8c(27)-1]	–	203
